Experimental findings from PMC5676682, “Precision Targeting of Tumor Macrophages with a CD206 Binding Peptide” (Scientific Reports, 2017) are described below.

In this experiment the target is T1, recombinant mouse macrophage mannose receptor rmMMR/CD206 (mouse, UniProt Q61830 20-1388).
T1 construct: macrophage mannose receptor (CD206/MRC1), mouse, recombinant; take the limits from the vendor's data sheet; also called MRC1; mouse recombinant CD206; source: bought: R&D Systems (catalog number 2535-MM-050)
T1 sequence (looked up): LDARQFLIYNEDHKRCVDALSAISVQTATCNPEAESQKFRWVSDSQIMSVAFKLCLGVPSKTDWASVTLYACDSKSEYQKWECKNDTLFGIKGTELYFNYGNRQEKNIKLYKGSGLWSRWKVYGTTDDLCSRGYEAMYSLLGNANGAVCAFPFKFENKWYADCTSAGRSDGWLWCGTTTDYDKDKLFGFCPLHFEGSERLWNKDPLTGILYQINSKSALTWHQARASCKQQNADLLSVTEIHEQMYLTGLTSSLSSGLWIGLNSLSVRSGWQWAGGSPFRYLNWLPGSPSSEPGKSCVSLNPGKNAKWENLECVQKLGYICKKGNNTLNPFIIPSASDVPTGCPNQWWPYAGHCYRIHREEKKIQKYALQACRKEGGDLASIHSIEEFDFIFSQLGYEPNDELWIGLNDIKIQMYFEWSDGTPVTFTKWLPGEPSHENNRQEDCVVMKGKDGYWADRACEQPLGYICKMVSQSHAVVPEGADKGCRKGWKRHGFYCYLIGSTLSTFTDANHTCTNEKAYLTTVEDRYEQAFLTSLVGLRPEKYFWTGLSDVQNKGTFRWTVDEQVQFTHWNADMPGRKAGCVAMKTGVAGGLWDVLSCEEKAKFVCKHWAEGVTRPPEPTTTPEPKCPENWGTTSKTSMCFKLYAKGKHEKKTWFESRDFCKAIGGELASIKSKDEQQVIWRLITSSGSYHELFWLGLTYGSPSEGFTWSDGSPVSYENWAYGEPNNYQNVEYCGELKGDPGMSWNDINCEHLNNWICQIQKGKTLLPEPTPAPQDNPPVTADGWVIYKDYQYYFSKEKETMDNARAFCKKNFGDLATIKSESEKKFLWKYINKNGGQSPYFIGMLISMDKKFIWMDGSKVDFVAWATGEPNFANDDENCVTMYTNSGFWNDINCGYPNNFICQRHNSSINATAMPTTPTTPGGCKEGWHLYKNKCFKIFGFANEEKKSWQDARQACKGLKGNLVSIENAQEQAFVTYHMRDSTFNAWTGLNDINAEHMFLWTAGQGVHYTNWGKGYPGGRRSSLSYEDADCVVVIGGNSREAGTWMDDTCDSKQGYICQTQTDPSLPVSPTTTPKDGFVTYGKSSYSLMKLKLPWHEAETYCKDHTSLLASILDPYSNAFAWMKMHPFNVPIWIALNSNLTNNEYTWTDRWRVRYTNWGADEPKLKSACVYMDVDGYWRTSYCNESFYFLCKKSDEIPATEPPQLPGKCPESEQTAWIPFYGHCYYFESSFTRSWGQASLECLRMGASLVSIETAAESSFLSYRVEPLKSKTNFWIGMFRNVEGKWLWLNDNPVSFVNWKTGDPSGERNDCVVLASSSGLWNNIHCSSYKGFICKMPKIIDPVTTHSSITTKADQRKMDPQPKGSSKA
Nature of the experiment: fluorescence polarisation; fluorescence anisotropy in solution, kinetic mode, 50 nM FAM peptide and 1 µM protein (pseudo first-order), 25 °C, 10 mM Na-HEPES, 150 mM NaCl, 1 mM CaCl2, 0.1% Pluronic F-127, pH 7.4. To be noted: both partners purified. A general note: Fluorescence polarisation rises when a labelled molecule tumbles more slowly, as on binding a larger partner.

Where no end group is shown, it is not given here. FAM = 5(6)-carboxyfluorescein; Ahx = NCCCCCC(=O)O

B1: FAM-CSPGAK (peptide)
peptide: {FAM-Ahx}-CSPGAK
notes: also called linear CSPGAK motif; source: synthetic peptide; bought: TAG Copenhagen
Regarding B1, the binding result is on record as “binds”.
